Measurements published in PMC9474520, “Biochemical and structural insights of multifunctional flavin-dependent monooxygenase FlsO1-catalyzed unexpected xanthone formation” (Nature Communications, 2022).

Substrate: CC1=CC(=O)[C@@H]2c3cc4cccc(O)c4c(O)c3C(=O)C[C@]2(O)C1
Assay: HPLC of dehydrorabelomycin formation
Type: biochemical, Micromonospora rosaria
Conditions: 2 mM NADPH, 50 mM phosphate pH 7.0, 30 °C

B1: FlsO1 (Micromonospora rosaria) (protein)
chain: MNTIDAEVIIVGAGPTGLMLAGELRLNNVSTIVLDRLAEPMQQSRALGFSARTIEEFDQRGLLARFGEVGTIPFGHFGGVPLDYRVIKGGSYGARGIPQSRTEGMLAQRAVELGAELRRGQEVVSIDDDGTGVAVVVRTADGEQTLRAKYLVGADGARSTVRKAAGIDFPGTDPTMEMWLADVAGCDLRLRFSGELVPGGMVMVLPLGPVAQRVVVFEHATGLRNSTEPPTFAEVADAFERLTGEDIRGGKPLWVSWFTDSSRQAAEYRRGRILLAGDAAHIHMPIGGQGMSAGIQDAVNLGWKLAAEIHGHAPEGLLDTYHTERHPVDGRVVMNTLAQRWLYLGGEAMQPLRELLGELVRYPDVQEHLVGMVTGLDIRYDVGAGEHPLLGRRIPNQELVGEFDGSGKSTTFEQLHRGRGVLFAFGDDTAGPQAATGWTDRVDVVRATPHTADPDDPFHGLDAVLVRPDGYVAWVAPAGAGAAGLDEALSRWFGPSR
notes: (His)6-tagged, pET28a (pCSG5205), E. coli BL21(DE3); Ni-NTA; homodimer; crystals from Q108G/R109G surface mutant
Km (0.5 μM enzyme): 253.4 µM

B2: FlsO2 (Micromonospora rosaria) (protein)
chain: MDTDVIVVGAGPTGLMLAGELRLGGARVVLVERLAEPTGQSRGLGFTARAMETLDQRGLLPRFGELETSPRGHFGGVQFDYSVLPDAHFGARGVPQSQTEDVLEKWATETGVDIRRGWELRELTDDGSGVTIVADTPDGTRQLRAAYLVGCDGGQSTVRKLVGFEFEGTPATRGMYLADVVGCALRPRFLGEKLANGMVMAAPLAEGVDRIIVCEHGTPPTERERQVSFEEVAAAWERITGESISHGGSLWVSSFTDATRQATEYRRGRVLLAGDAAHIHLPAAGQGLSVGVQDAANLGWKLAAVVRGHAPEGLLDTYHDERHPVGARLLLNTRVQNAVFLGGEEAEPLRTLFTELISYDTVGRHLAGMVSGLEVRYDVGAGDHPLLGRRLPPRALHGAAGATTTTELLHPATGVLLDLTDDAGLRAVAAGYGDRVAVTVATSDAAEFAGVPALLVRPDGYVAWVGAEPDGLAAALRRWFGEPAPAGQ
notes: expressed from pCSG5102 (previously constructed), E. coli BL21(DE3); purified similarly to FlsO1
Km (0.25 μM enzyme): 143.2 µM
